Columns and labels:
[1] = molecular target: T1, EcTopoI (topoisomerase I) (Escherichia coli DY330, UniProt P06612 1-865); assay: EMSA; 6 mM Mg2+; EMSA: 10 mM Tris-HCl pH 7.5, 50 mM NaCl, 6 mM MgCl2, 37 C 10 min; MST: same plus 0.05% Tween-20, 22 C; conditions: protein: recombinant; label: 5'-Cy5; single strand
[2] = molecular target: T1, EcTopoI (topoisomerase I); assay: MST; 6 mM Mg2+; range for both random oligos; EMSA: 10 mM Tris-HCl pH 7.5, 50 mM NaCl, 6 mM MgCl2, 37 C 10 min; MST: same plus 0.05% Tween-20, 22 C; conditions: protein: recombinant; label: 5'-Cy5; single strand
[3] = molecular target: T1, EcTopoI (topoisomerase I); assay: competition; vs labeled Consensus R; about as efficient as Consensus R; EMSA: 10 mM Tris-HCl pH 7.5, 50 mM NaCl, 6 mM MgCl2, 37 C 10 min; MST: same plus 0.05% Tween-20, 22 C; conditions: protein: recombinant; single strand

T1 sequence (P06612 whole entry): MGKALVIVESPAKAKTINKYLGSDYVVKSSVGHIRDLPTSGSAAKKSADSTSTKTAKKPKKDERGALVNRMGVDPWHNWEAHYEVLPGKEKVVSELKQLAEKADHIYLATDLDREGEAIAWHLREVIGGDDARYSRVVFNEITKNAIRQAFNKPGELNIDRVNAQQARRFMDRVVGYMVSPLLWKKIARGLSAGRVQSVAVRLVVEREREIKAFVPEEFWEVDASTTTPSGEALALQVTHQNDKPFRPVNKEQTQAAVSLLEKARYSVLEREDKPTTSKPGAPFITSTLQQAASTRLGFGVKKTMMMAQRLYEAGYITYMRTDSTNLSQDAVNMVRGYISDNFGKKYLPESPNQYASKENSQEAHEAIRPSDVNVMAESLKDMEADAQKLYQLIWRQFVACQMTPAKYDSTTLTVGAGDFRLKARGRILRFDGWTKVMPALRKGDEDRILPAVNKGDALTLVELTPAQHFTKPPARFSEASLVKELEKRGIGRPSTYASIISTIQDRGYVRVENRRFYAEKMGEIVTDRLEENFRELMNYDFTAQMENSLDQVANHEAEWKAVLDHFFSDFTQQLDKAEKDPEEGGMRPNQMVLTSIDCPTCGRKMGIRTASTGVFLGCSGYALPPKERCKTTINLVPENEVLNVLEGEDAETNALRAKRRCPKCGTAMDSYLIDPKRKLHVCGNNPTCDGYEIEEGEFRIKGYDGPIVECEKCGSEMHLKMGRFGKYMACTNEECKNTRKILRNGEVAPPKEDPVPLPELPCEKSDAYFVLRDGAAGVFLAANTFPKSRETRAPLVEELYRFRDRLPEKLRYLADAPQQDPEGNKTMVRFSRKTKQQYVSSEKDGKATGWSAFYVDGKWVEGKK

Binder	Kd [1] [nM]	Kd [2] [nM]	further results
GCGTTTTTTTCTTCATTATTTTTGCG (ssDNA) [Consensus F]	190 ± 87	–	–
CGCAAAAATAATGAAGAAAAAAACGC (ssDNA) [Consensus R]	207 ± 76	–	–
GCGCACGTAATCCGCAGTGCGGTGCG (ssDNA) [Random F]	–	~324	–
CGCTCCGCACTGCGGATTACGTGCGC (ssDNA) [Random R]	–	~324	–
CGCAAAAAAAAAAAAAAAAAAAACGC (ssDNA) [Poly-A, unlabeled]	–	–	binding result [3]: binds

— paper PMC9352719, “Interaction between transcribing RNA polymerase and topoisomerase I prevents R-loop formation in E. coli”
